Results published in paper PMC7035113 (Nature, 2020).

T1: SA2-SCC1 complex (SA2 80-1060 in complex with SCC1 281-420) (human | , UniProt Q8N3U4;O60216)
T1 sequence 1: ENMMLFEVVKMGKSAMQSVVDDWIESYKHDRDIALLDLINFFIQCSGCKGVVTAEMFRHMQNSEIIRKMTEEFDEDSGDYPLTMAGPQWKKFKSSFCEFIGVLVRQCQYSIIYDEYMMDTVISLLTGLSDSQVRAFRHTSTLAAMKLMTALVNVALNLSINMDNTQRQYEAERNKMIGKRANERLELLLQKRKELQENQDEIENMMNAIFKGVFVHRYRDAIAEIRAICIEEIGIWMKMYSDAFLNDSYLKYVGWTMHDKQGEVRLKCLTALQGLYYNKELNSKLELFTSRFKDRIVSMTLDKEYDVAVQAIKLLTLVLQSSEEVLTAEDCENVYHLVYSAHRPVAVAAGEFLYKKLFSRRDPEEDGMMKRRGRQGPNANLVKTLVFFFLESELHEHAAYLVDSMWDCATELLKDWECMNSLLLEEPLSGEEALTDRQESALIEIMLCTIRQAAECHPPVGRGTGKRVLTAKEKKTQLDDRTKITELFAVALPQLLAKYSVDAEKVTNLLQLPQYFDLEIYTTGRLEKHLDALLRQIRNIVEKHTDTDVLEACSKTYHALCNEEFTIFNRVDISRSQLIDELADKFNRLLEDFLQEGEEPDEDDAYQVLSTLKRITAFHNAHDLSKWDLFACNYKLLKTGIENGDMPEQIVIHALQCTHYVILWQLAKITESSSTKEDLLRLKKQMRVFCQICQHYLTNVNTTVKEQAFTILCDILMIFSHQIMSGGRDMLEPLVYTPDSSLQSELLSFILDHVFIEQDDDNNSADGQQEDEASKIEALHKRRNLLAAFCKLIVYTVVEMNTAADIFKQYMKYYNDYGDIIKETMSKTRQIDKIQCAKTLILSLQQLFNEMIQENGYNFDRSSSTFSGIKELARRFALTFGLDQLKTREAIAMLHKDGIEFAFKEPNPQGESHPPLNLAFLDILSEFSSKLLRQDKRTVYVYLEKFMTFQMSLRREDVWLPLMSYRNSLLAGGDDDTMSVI
T1 sequence 2: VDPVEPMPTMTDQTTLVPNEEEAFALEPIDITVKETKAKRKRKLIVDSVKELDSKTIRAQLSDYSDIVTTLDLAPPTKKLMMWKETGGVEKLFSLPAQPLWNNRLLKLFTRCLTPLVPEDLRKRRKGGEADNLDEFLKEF

B1: WAPL residues 1-600 (domain or fragment)
chain: MTSRFGKTYSRKGGNGSSKFDEVFSNKRTTLSTKWGETTFMAKLGQKRPNFKPDIQEIPKKPKVEEESTGDPFGFDSDDESLPVSSKNLAQVKCSSYSESSEAAQLEEVTSVLEANSKISHVVVEDTVVSDKCFPLEDTLLGKEKSTNRIVEDDASISSCNKLITSDKVENFHEEHEKNSHHIHKNADDSTKKPNAETTVASEIKETNDTWNSQFGKRPESPSEISPIKGSVRTGLFEWDNDFEDIRSEDCILSLDSDPLLEMKDDDFKNRLENLNEAIEEDIVQSVLRPTNCRTYCRANKTKSSQGASNFDKLMDGTSQALAKANSESSKDGLNQAKKGGVSCGTSFRGTVGRTRDYTVLHPSCLSVCNVTIQDTMERSMDEFTASTPADLGEAGRLRKKADIATSKTTTRFRPSNTKSKKDVKLEFFGFEDHETGGDEGGSGSSNYKIKYFGFDDLSESEDDEDDDCQVERKTSKKRTKTAPSPSLQPPPESNDNSQDSQSGTNNAENLDFTEDLPGVPESVKKPINKQGDKSKENTRKIFSGPKRSPTKAVYNARHWNHPDSEELPGPPVVKPQSVTVRLSSKEPNQKDDGVFKAPA

Experiments:
[1] = molecular target: T1, SA2-SCC1 complex (SA2 80-1060 in …); assay: pull-down
[2] = molecular target: T1, SA2-SCC1 complex (SA2 80-1060 in …); assay: peptide or protein array
[3] = molecular target: T1, SA2-SCC1 complex (SA2 80-1060 in …); assay: ITC

Row | Binder | Kd [2] [µM] | also measured
1 | B1 |  | binding result [1]: binds
2 | DVSVFDFEEEQ [CTCF array peptide Y226F (position 2)] | 1.6 | 
3 | KIKYFGFDDLS [WAPL array peptide from residue 450 (position 8)] | 2.17 | 
4 | KLEFFGFEDHE [WAPL array peptide from residue 425 (position 7)] | 12.4 | 
5 | KLSAFNFLDGS [yeast WAPL array peptide from residue 108 (position 10)] | 10.7 | 
6 | FTRAYDFETED [SYCP3 array peptide from residue 21 (position 17)] | 1.96 | 
7 | TGDPFGFDSDD [WAPL array peptide from residue 70 (position 6)] | 5.9 | 
8 | RKMAFEFDINS [SYCP1 array peptide from residue 882 (position 15)] | 6.71 | 
9 | NYKIKYFGFDDLSESE [WAPL peptide 447-462 (third FGF motif only)] |  | Kd [3]: 78.7 µM; dH [3]: -6.81 kcal/mol; stoichiometry N [3]: 1
